# “Also recorded” adds a separate entry of the source. Like-named read-outs stand apart in the source and are kept apart here. Positions of bridges follow the written chain, without caps; N, C: chain ends.
# How the values were obtained:
# Alk-3 = biological target: T1, Alk-3 (Homo sapiens, UniProt P36894); test: Radio-ligand (125I-BMP7) receptor binding assay, Alk-3 ECD
# T1 construct: Highly purified extra-cellular domain (ECD) of Alk-3 or Alk-6 (expressed as a fusion protein with Fc domain) served as a receptor
# T1 sequence (P36894 24-152 limits assumed, species assumed): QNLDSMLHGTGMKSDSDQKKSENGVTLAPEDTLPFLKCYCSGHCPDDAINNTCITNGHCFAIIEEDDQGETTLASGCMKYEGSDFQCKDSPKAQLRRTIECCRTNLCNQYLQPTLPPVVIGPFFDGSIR
# From the text: FIG. 45A-FIG. 45G Pharmacokinetics of THR-123. FIG. 45A. BMP7 structure figure with the residue weights resulting from the analysis mapped on to it. FIG. 45B, FIG. 45C. Radio-ligand receptor binding assays specific for individual type I receptors, Alk-3 (FIG. 45B) and Alk-6 (FIG. 45C). Highly purified extra-cellular domain (ECD) of Alk-3 or Alk-6 (expressed as a fusion protein with Fc domain) served as a receptor. In each assay purified receptor was immobilized on each well and peptide analog or unlabeled BMP7 was added, followed by ^125I-labeled BMP7. Radiolabeled BMP7 complex was counted in an auto-gamma counter. Results were expressed as the mean±s.e.m. […] Concentration of THR-123 in systemic circulation of Wistar rats following iv injection of THR-123 (^125I-Tyr) via the tail vein determined by total radioactivity measurement. […] Six hours after intravenous administration of ^125I labeled-THR-123 in rats at a dose of 6.25 mg/kg-body weight, tissues were harvested and analyzed by automatic gamma well counter. […] Radioactivity of orally administrated ^125I labeled-THR-123 at a dose of 5 mg/kg body weight was localized in the kidney between 1 and 6 hours after administration and peaked at around 3 hours.
# First, specific affinity of the extra cellular domains (ECD) of the several type I receptors of BMPs to THR-123 was analyzed. […]
# NP-1 cells = test: TGF-β-induced EMT in NP-1 cells (inhibition and reversal); assay type: cell-based; conditions: for TGF-β-induced E-cadherin loss (co-incubation): 48 h; for TGF-β-induced E-cadherin loss (co-incubation) / TGF-β-induced EMT, cell shape (co-incubation): BMP-7 1 μg/ml, THR-123 10 μM; for E-cadherin expression in TGF-β-incubated cells (reversal) / percentage of cells that regained epithelial characteristics (length to width ratio): NP-1 cells; for TGF-β-induced EMT, cell shape (co-incubation): TGF-β 3 ng/ml with EGF 48 h; for percentage of cells that regained epithelial characteristics (length to width ratio): reversal experiment
# Description: FIG. 51A-FIG. 51J THR-123 inhibits epithelial-mesenchymal transition in NP-1 cells. FIG. 51A-FIG. 51E: Bright field image. […] F-J. E-cadherin immunofluorescence labeling. NP-1 cells expressed E-cadherin in cell border (FIG. 51F). […] Representative results are shown.
# FIG. 53A-FIG. 53L Reversal of EMT by THR-123 in NP-1 cells A-E: Inverted microscopic pictures. FIG. 53A. Basal polygonal epithelial nature of NP1 cells. FIG. 53B. […] FIG. 53C, FIG. 53D. BMP 7 (1 μg/ml) (FIG. 53C) or THR-123 (10 μM) (FIG. 53D) were added to mesenchymal like cells induced by TGF-β and EGF for the additional 48 hrs. […] FIG. 53E. […] FIG. 53F. Ratio of length to width was calculated in reversal experiment. Five representative pictures of the cells in different areas of the well, were taken by using the inverted microscope. A total of 100 cells were analyzed (20 cells per picture). […] The data are presented mean+s.e.m. in the graph. FIG. 53G. […] Mean plus one SD was estimated as epithelial characteristics and the percentage of epithelial characteristics in each experimental setting were estimated. 18% of BMP7 and 24% of THR-123 treated NP-1 cells regained epithelial characteristics. FIG. 53H-FIG. 53L. Immunofluorescence picture for E-cadherin. TGF-β incubation decreased E-cadherin levels when compare to untreated cells (FIG. 53H, FIG. 53I). […] Representative results from three independent experiments are shown.
# (§1) EMT was induced in NP1 cells or MCT cells by incubation with 3 ng/ml recombinant human […] for 48 h. When EMT occurred, the medium was removed and replaced with THR-123 (10 μM) or recombinant human BMP7 (100 ng/ml) in DMEM. After 48 h, the cells were characterized by immunocytochemistry using primary monoclonal antibodies to E-cadherin ([…]) and rhodamine-conjugated secondary antibodies (Jackson Immunoresearch, West Grove, Pa.) as previously described. The staining was visualized by fluorescence microscopy and documented representative pictures using Spot advanced software (Carl Zeiss, Oberkochen, Germany). Also protein and total RNA were harvested at the end of experiment. For the morphometric analysis for EMT, length/width of cells in bright field pictures are measured by image J software. The ratio of length/width was calculated.
# MCT cells = test: TGF-β-induced EMT in MCT cells (inhibition and reversal); assay type: cell-based; conditions: for reversal of EMT: additional 48 h after EMT induction, BMP-7 1 μg/ml; for percentage of cells that regained epithelial characteristics (length to width ratio 3 or less): reversal experiment, MCT cells
# Description: FIG. 52A-FIG. 52E THR-123 inhibits epithelial-mesenchymal transition in MCT cells. Inhibition of EMT by THR-123. […] FIG. 52D, FIG. 52E qPCR analysis for mesenchymal marker CTGF (FIG. 52D) and Snail1 (FIG. 52E). Total RNA was extracted from cells. 1 μg of total RNA was used for generating complementary cDNA and subsequently qPCR was performed. N=3. Data was expressed as mean±s.e.m. in the graph.
# FIG. 54A-FIG. 54H THR-123 reverses TGF-β-induced EMT in MCT cells. FIG. 54A-FIG. 54E. Cell were induced EMT by 48 h incubation of TGF-β and EGF (FIG. 54E). After induction of EMT, cells are incubated with either BMP-7 (1 μg/ml) (FIG. 54C), THR-123 (10 μM) (FIG. 54D) or control peptide (FIG. 54E) for an additional 48 h. […] FIG. 54F. Ratio of length to width was calculated in reversal experiment. 5 representative pictures of the cells in different areas of the well, were taken by using the inverted microscope. A total of 100 cells were analyzed (20 cells per picture). […] The data are presented mean±s.e.m. in the graph. FIG. 54G: 3 or less in length to width ratio in MCT cell was estimated as epithelial characteristics and the percentage of epithelial characteristics in each experimental setting are estimated. 52% of BMP7 and 41% of THR-123 treated MCT cells regained epithelial characteristics. Experiments were repeated three times.
# as §1
binding to ALK3 (competition with 125I-BMP7) (Alk-3),Molecule,binding to ALK3 (competition with 125I-BMP7) (Alk-3; listed as THR-123),TGF-β-induced E-cadherin loss (co-incubation) (NP-1 cells),E-cadherin expression in TGF-β-incubated cells (reversal) (NP-1 cells),"TGF-β-induced EMT, cell shape (co-incubation) (NP-1 cells)",percentage of cells that regained epithelial characteristics (length to width ratio) (NP-1 cells) [%],"TGF-β induced expression of snail and CTGF (qPCR) (MCT cells; FIG. 52 D, E)","TGF-β-induced EMT, cell shape (co-incubation) (MCT cells; TGF-β 2.5 ng/ml 48 h, THR-123 10 μM)",reversal of EMT (MCT cells; THR-123 10 μM),percentage of cells that regained epithelial characteristics (length to width ratio 3 or less) (MCT cells) [%]
,(H)-CYFDDSSNVLCKKYRS-(OH) (H-CYFDDSSNVLCKKYRS-OH; disulfide 1-11; SMILES CC(C)C[C@@H]1NC(=O)[C@H](C(C)C)NC(=O)[C@H](CC(N)=O)NC(=O)[C@H](CO)NC(=O)[C@H](CO)NC(=O)[C@H](CC(=O)O)NC(=O)[C@H](CC(=O)O)NC(=O)[C@H](Cc2ccccc2)NC(=O)[C@H](Cc2ccc(O)cc2)NC(=O)[C@@H](N)CSSC[C@@H](C(=O)N[C@@H](CCCCN)C(=O)N[C@@H](CCCCN)C(=O)N[C@@H](Cc2ccc(O)cc2)C(=O)N[C@@H](CCCNC(=N)N)C(=O)N[C@@H](CO)C(=O)O)NC1=O) [SEQ ID NO: 1],competes with BMP7; also recorded: binds,prevents E-cadherin loss,reversed E-cadherin expression,prevents these phenotypic changes,24,inhibited,prevents these phenotypic changes,Reversal of EMT was observed,41
binds,"BMP-7: bone morphogenetic protein-7; recombinant human BMP7, positive control (protein) STGSKQRSQNRSKTPKNQEALRMANVAENSSSDQRQACKKHELYVSFRDLGWQDWIIAPEGYAAYYCEGECAFPLNSYMNATNHAIVQTLVHFINPETVPKPCCAPTQLNAISVLYFDDSSNVILKKYRNMVVRACGCH",,prevents E-cadherin loss,reversed E-cadherin expression,prevents these phenotypic changes,18,,,Reversal of EMT was observed,52
